For this experiment, the target named is T1, Pmt1 (protein O-mannosyltransferase 1), C-terminal 3×FLAG-tagged (S. cerevisiae, UniProt P33775 1-817, N-glycan on N390).
T1 sequence (looked up): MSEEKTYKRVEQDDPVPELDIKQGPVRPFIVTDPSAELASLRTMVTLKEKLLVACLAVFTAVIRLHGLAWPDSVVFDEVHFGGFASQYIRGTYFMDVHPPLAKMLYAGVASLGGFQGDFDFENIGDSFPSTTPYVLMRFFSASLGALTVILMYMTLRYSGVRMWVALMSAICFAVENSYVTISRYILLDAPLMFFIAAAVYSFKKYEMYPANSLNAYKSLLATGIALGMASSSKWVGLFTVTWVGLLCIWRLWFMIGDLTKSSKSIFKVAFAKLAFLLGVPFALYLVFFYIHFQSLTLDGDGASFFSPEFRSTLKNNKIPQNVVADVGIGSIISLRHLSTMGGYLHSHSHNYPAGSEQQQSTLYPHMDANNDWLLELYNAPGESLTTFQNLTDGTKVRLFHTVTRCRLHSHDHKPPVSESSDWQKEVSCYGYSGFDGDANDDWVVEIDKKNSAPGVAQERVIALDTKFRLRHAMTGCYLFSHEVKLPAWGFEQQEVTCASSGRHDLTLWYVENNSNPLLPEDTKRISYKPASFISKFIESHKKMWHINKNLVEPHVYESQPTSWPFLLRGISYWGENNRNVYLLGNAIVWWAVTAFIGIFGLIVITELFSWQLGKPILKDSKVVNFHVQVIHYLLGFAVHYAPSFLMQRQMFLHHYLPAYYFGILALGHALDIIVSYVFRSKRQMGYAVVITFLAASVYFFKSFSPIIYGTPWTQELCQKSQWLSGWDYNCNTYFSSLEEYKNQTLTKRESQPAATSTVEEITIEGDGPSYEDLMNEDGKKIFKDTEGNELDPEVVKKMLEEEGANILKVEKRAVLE
Put plainly: cryo-EM structure.

B1: Pmt2 (protein O-mannosyltransferase 2) (enzyme, S. cerevisiae, UniProt P31382 1-759, looked up)
chain: MSSSSSTGYSKNNAAHIKQENTLRQRESSSISVSEELSSADERDAEDFSKEKPAAQSSLLRLESVVMPVIFTALALFTRMYKIGINNHVVWDEAHFGKFGSYYLRHEFYHDVHPPLGKMLVGLSGYLAGYNGSWDFPSGEIYPDYLDYVKMRLFNASFSALCVPLAYFTAKAIGFSLPTVWLMTVLVLFENSYSTLGRFILLDSMLLFFTVASFFSFVMFHNQRSKPFSRKWWKWLLITGISLGCTISVKMVGLFIITMVGIYTVIDLWTFLADKSMSWKTYINHWLARIFGLIIVPFCIFLLCFKIHFDLLSHSGTGDANMPSLFQARLVGSDVGQGPRDIALGSSVVSIKNQALGGSLLHSHIQTYPDGSNQQQVTCYGYKDANNEWFFNRERGLPSWSENETDIEYLKPGTSYRLVHKSTGRNLHTHPVAAPVSKTQWEVSGYGDNVVGDNKDNWVIEIMDQRGDEDPEKLHTLTTSFRIKNLEMGCYLAQTGNSLPEWGFRQQEVVCMKNPFKRDKRTWWNIETHENERLPPRPEDFQYPKTNFLKDFIHLNLAMMATNNALVPDPDKFDYLASSAWQWPTLNVGLRLCGWGDDNPKYFLLGTPASTWASSVAVLAFMATVVILLIRWQRQYVDLRNPSNWNVFLMGGFYPLLAWGLHYMPFVIMSRVTYVHHYLPALYFALIILAYCFDAGLQKWSRSKCGRIMRFVLYAGFMALVIGCFWYFSPISFGMEGPSSNFRYLNWFSTWDIADKQEA
modifications: N-glycan on N131
For the molecule B1, the stoichiometry N (in general, the number of molecules, sites or subunits per partner or assembly) stood at 1.

For the origin of these results see PMC6684406 (Nature structural & molecular biology, 2019).
